{
  "source": "patent US20210009703A1",
  "about": "(TUSK THERAPEUTICS, published 2021)",
  "binders": {"B1": {"name": "aCD25-a-672 (antibody, V domains shown)", "VH": "QVQLVQSGAEVKKPGSSVKVSCKASGGTFSSYAISWVRQAPGQGLEWMGGIIPIFGTANYAQKFQGRVTITADESTSTAYMELSSLRSEDTAVYYCAREYDYKEDWGQGTLVTVSS", "VL": "not shown", "notes": "An afucosylated IgG1 form was also made"}},
  "key": {"[1]": {"target": "T1, human CD25 expressed on cells (human, UniProt P01589 22-272)", "T1 construct": "Endogenous CD25 on human cells; also called CD25 on human in vitro differentiated Treg cells, SU-DHL-1 cells, SR-786 cells and PBMC", "T1 sequence": "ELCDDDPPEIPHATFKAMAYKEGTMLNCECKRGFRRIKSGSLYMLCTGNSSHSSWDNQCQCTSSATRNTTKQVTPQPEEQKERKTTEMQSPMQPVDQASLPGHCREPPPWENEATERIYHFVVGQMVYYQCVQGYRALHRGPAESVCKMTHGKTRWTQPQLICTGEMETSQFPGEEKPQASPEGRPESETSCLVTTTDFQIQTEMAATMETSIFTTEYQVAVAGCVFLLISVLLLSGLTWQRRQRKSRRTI", "assay": "flow cytometry on SU-DHL-1 cells, PE anti-human IgG Fc secondary", "description": "Cells were washed again and resuspended in FACS buffer containing DAPI and acquired on the Intellicyt iQue. Live cells were gated using FSC vs SSC parameters by flow cytometry during sample acquisition. Geo Mean Intensity of stained cells were plotted on an XY chart, graphing Geo Mean Intensity against the log of the concentration, and the data fit to a non-linear regression curve from which the EC50 is calculated."}, "[2]": {"target": "T2, recombinant human CD25 his tagged (human, UniProt P01589 22-240)", "T2 construct": "also called rhCD25-his; rhCD25; not shown: His tag", "T2 sequence": "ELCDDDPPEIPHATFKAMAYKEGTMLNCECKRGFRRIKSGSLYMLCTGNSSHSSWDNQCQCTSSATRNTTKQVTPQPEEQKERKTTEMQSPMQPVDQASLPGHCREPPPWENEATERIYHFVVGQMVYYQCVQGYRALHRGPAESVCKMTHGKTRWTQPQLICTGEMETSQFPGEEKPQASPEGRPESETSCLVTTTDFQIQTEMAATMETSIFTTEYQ", "assay": "ForteBio BLI, avidity format: rhCD25-His on Ni-NTA sensors, IgG in solution; IgG in solution, avidity format"}},
  "data": [
    {"binder": "B1", "values": [
      {"measurement": "EC50 (read off the curve)", "setting": "[1]", "value": "~0.2", "unit": "µg/mL"},
      {"measurement": "Kd", "setting": "[2]", "value": 1.2, "unit": "nM"}
    ]}
  ]
}
